The results in this text go back to article PMC6515530, “Characterization and Dye Decolorization Potential of Two Laccases from the Marine-Derived Fungus Pestalotiopsis sp” (International Journal of Molecular Sciences, 2019).

Holding throughout (experiment): purified protein
In data set [1] the test system is CCn1c(=NN=c2sc3cc(S(=O)(=O)O)ccc3n2CC)sc2cc(S(=O)(=O)O)ccc21. The note with it: pH 4, 30 °C.
Data set [2] concerns COc1cc(-c2ccc(N)c(OC)c2)ccc1N. To be noted: pH 5, 30 °C.
In data set [3] the test system is T1, COc1cc(C=NN=Cc2cc(OC)c(O)c(OC)c2)cc(OC)c1O.
T1 construct: secreted by Aspergillus niger D15#26, purified
In kind it is biochemical, Pestalotiopsis sp. KF079. The note with it: pH 5, 30 °C.

With PsLac1 (Pestalotiopsis sp.), in data set [1], the Km (usually the concentration of substrate that gives half-maximal velocity) was found to be 24 µM; the catalytic constant (kcat) (usually the number of substrate molecules converted per active site and unit of time at saturation) was found to be 0.696 s⁻¹; the catalytic efficiency (kcat/Km) – broadly, the second-order rate constant that governs catalysis at low substrate concentration – is 29200 M⁻¹ s⁻¹. Further, in data set [2], the Michaelis-Menten constant (Km) is 647 µM, the catalytic constant (kcat) worked out at 0.057 s⁻¹ and the kcat/Km came out at 89 M⁻¹ s⁻¹. In addition, in data set [3], the Km was found to be 4 µM, the turnover number (kcat) was 0.365 s⁻¹ and the kcat/Km was 82900 M⁻¹ s⁻¹.
As to PsLac2 (Pestalotiopsis sp.), the Km stood at 100 µM in data set [1], 144 µM in data set [2] and 101 µM in data set [3]. Moreover, the kcat stood at 0.431 s⁻¹ in data set [1], 0.748 s⁻¹ in data set [2] and 0.573 s⁻¹ in data set [3]. The kcat/Km was 4330 M⁻¹ s⁻¹ in data set [1], 5190 M⁻¹ s⁻¹ in data set [2] and 5670 M⁻¹ s⁻¹ in data set [3].
